Experimental data as given in publication PMC12720418.

Target: VC1 tandem domains of the receptor for advanced glycation end-products (RAGE)
Test: ITC; 100 μM calprotectin (CP*) injected into 50 μM RAGE VC1 in the cell; 25°C; 50 mM HEPES pH 7.5, 150 mM NaCl, 10 mM CaCl2; average of three titrations, independent binding model

## calprotectin heterodimer of S100A8 (C42S) and S100A9 (C3S) (from UniProt P05109 1-93; P06702 4-114) (complex)
  Kd: 380 nM
